Experimental data reported in US20070009972A1, “Epidermal growth factor receptor polypeptides and antibodies” (priority 2005, published 2007).
*: point of attachment. Biotin = O=C1N[C@H]2[C@H](CS[C@H]2CCCCC(=O)*)N1; Ahx = NCCCCCC(=O)O

Assays:
EGFR = target: T1, EGFR (Homo sapiens, UniProt P00533); experiment: Cyclic polypeptide inhibition of EGFR phosphorylation in model HMEC cell system; assay type: cell-based; conditions: biotinylated cyclic polypeptide
T1 construct: tested them in a model HMEC cell system; endogenous in cells; host or cells: 184A1 human mammary epithelial cells (HMECs)
Source text: We selected amino acid sequences corresponding to fragments of Domain II and Domain IV of EGFR. The sequence of each polypeptide is shown in the first column of Table 1. The polypeptides were chosen based on their positions on the crystal structures of monomeric and dimeric EGFR (Burgess et al., Mol. Cell 12:541-552, 2003). Although Domain IV of EGFR is not resolved in the dimer crystal structure, it is believed that portions of Domain IV come into contact upon dimerization. […] We generated biotinylated cyclic polypeptides that included each sequence and tested them in a model HMEC cell system. The sequences of the biotinylated cyclic polypeptides are shown in the third column of Table 1. […] For the LYNPTTYQMD polypeptide, the different results obtained from polypeptide and polyclonal antisera inhibition could be due to differences in the quantitative details of the assays, or the polypeptide could have a lower affinity for the receptor than the polyclonal antisera does.

[1] = target: T2, Biotin-GCAHYIDGPHCG-CONH2 (SEQ ID NO:9) (not fully specified (bridges); printed as Biotin-GCAHYIDGPHCG-; also: cyclic (type of ring not given here)); experiment: yeast surface display screen of naive human library against the peptide (1 round MACS, 3 rounds FACS); clone isolated as specific binder
T2 construct: Biotinylated cyclic polypeptide; also called EGFR Domain IV (558-567) peptide
T2 peptide: Biotin-GCAHYIDGPHCG-NH2

[2] = target: T3, Biotin-GCGLYNPTTYQMDGCG-CONH2 (SEQ ID NO:7) (not fully specified (bridges); printed as Biotin-GCGLYNPTTYQMDGCG-; also: cyclic (type of ring not given here)); experiment: as above
T3 construct: Biotinylated cyclic polypeptide tested on HMECs; also called EGFR Domain II (245-254) peptide
T3 peptide: Biotin-GCGLYNPTTYQMDGCG-NH2

[3] = target: T4, Biotin-Aha-CMGENNTG-CONH2 (SEQ ID NO:10) (also: called cyclic, ring not described); experiment: as above
T4 construct: also called EGFR Domain IV (576-581) peptide
T4 peptide: {Biotin-Ahx}-CMGENNTG-NH2

[4] = target: T5, Biotin-GCRNVSRGRECG-CONH2 (SEQ ID NO:8) (not fully specified (bridges); printed as Biotin-GCRNVSRGRECG-; also: cyclic (ring type and places not given here)); experiment: as above
T5 construct: Biotinylated cyclic polypeptide; also called EGFR Domain IV (502-511) peptide
T5 peptide: Biotin-GCRNVSRGRECG-NH2

[5] = target: T6, Biotin-GCLVWKYADAGCG-CONH2 (SEQ ID NO:11) (not fully specified (bridges); printed as Biotin-GCLVWKYADAGCG-; also: cyclic (ring type and places not given here)); experiment: as above
T6 construct: Biotinylated cyclic polypeptide; also called EGFR Domain IV (582-590) peptide
T6 peptide: Biotin-GCLVWKYADAGCG-NH2

LYNPTTYQMD [Biotin-GCGLYNPTTYQMDGCG-CONH2]
Peptide Inhibition (EGFR): No

CAHYIDGPHC [Biotin-GCAHYIDGPHCG-CONH2]
Peptide Inhibition (EGFR): Yes

LVWKYADAG [Biotin-GCLVWKYADAGCG-CONH2]
Peptide Inhibition (EGFR): Yes

CRNVSRGREC [Biotin-GCRNVSRGRECG-CONH2]
Peptide Inhibition (EGFR): Yes

B1: SEQ ID NO 28 (scFv)
scFv: QVQLQQSGPGLVKPSQTLSLTCAISGDSVSSNSAAWNWIRQSPSRGLEWLGRTYYRSKWYNEYAVSVKSRITINPDTSKNHFSLQLNSVTPEDTAVYYCAREIVGTPFDYWGQGTLVTVSSGILGSGGGGSGGGGSGGGGSDIRVTQSPSSLSASVGDRVTITCRTSQSASKYVNWYQQKPGKVPKLLIYAASSLQSGVPSRFSGSGSGTHFTLSISNLQPGDMGTYYCQQGYGTPLTFGGGTKLEIKSGF
binding result [1]: binds

B2: SEQ ID NO 18 (other)
VH: QVQLVQSEGGVVQPGRSLRLSCAASGFTFSSYAMHWVRQAPGKGLEWVAVISYDGSNKYYADSVKGRFTISRDNSKNTLYLQMNSLRAEDTAVYYCARDEGYYGSGCIDYWGQGTLVTVSSGILGSGGGSGGGGSGGGGLQEF
binding result [2]: binds

B3: SEQ ID NO 36 (other)
VH: QVQLQESGPGLVKPSETLSLTCTFSGGSIRSSSDYWGWVRQPPGKGLEWIGSISSSGSTYYNPSLKSRVTISVDTSRNQFSLRLSSVTAADTAIYYCARYNHYWYFDLWGRGTLVTVSSGILGSGGGSGGGGSGGGGSKRHSRSLQHSSQRLQETKSTSPAKPAKTLMMI
notes: also called VH clone isolated against MGENNT
binding result [3]: binds

B4: SEQ ID NO 20 (other)
VH: QVQLQQSGPGLVKPSQTLSLTCDISGDSVSSDSAAWNWIRLSPSRGLEWLGRTYYWSKWYTDYAVSVKSRITINPDTSKNQFSLQLNSVTPEDTAVYFCARERYCSSTSCYLDAFDIWGQGTMVTVSGILGSGGGGSGGGGSGGGGLQEF
binding result [4]: binds

B5: SEQ ID NO 35 (scFv)
scFv: QVQLVESEGRLVKPGGSLRLSCVASGMTFNNAWMSWVRQAPGKGLEWVGRIRSESNGGTTDYAAPGKGRFTISRDDSKNTLYLQMNSLQIEDTAVYYCATDRGYSNSGNYYRHYWGQGTLVTVSSGILGSGGGGSGGGGSGGGGSDIRLTQSPSSLSASVGDRVTITCQASQDISNYLNWYQQKPGKAPKLLIYDASNLETGVPPRFSGSGSGTAFTFTISSLQPEDFATYYCQQYDNLPHTFGPGTKVDIKSGILEQKLISEEDL
binding result [1]: binds

B6: SEQ ID NO 19 (other)
VH: QVQLVQSEGGVVQPGRSLRLSCAAPGFTFSSYAMHWVRQAPGKGLEWVAVISYDGSNKYYADSVKGRFTISRDNSKNTLYLQMNSLRAEDTAVYYCARDEGYYGSGCIDYWGQGTLVTVSSGILGSGGGGSGGGGSGGGGLQEF
binding result [2]: binds

B7: SEQ ID NO 21 (other)
VH: QVQLQQWGPGLLKPSETLSLTCGVSGGSLSGYYWSWIRQSPGKELEWIGEINQGGSTNYNPSLRSRVTISVDTSKKQLSLKVNSVTASDTAVYYCARETFRGSNCFDSWGQGTLVTVSSGILGSGGGIGGGGSGGGGLQEF
binding result [4]: binds

B8: SEQ ID NO 38 (other)
VH: QITLKESGPTVVKPTQTLTLTCTFSGFSLSTSGVGVGWIRQPPGKALEWLALISWDDDKRYSPSLKSRLTITKDTSKNQVVLTMTNMDPVDTATYFCAHLNNFVDAIELRTGWCFDVWGRGTLVTVSGILGSGGGGSGGGGSGGGVLKLC
binding result [5]: binds

B9: SEQ ID NO 39 (other)
VH: QITLKESGPTVVKPTQTLTLTCTFSGFSLSTSGVGVGWIRQPPGKALEWLALISWDDDKRYSPSLKSRLTITKDTSKNQVVLTMTNMDPVDTATYFCAHLINFVDAIELRTGWCFDVWGRGTLVTVSGILGSGGGGSGGGGSGGGVLKLR
binding result [5]: binds

B10: SEQ ID NO 27 (scFv)
scFv: QITLKESGPTLVKPTQTLTLTCTFSGFSLSTNGVGVGWIRQPPGKALEWLALIYWNDDKRYSPSLKRRLTITKDTSKNQVVLTMTNMDPVDTATYYCAHRLLDSGYILPPTFDYWGQGTLVTVSSGILGSGGGGSGGGGSGGGGSEIVLTQSPGTLSLSPGERATLSCRASQSVNSGYLAWYQQKPGQAPRLLISAASSRATGIPDRFSGSGSGTDFTLTISRLEPEDFAVYYCQRYDTSRGFTFGPGTKVDIKSGF
binding result [1]: binds

B11: SEQ ID NO 37 (other)
VH: QVQLQESGPGLVKPSETLSLTCTVSGGSISNSDYYWGWIRQPPGKGLRWIGSINYYGTTYYNPSLKSRVAMSVDTSKNQFSLKLSSVTAADTAVYYCARRGANSWFFDLWGRGTLVTVSSGILGSGGGSGGGGSGGGGLQEF
notes: as for B3
binding result [3]: binds
